# Measured values as given in patent publication US20210155683A1.
# Tests used:
# [1] = molecular target: NGF (as used in the TF-1 cell proliferation assays); assay: cell-based or functional assay
# human β-NGF (human) [2] = molecular target: human β-NGF (human) (UniProt P01138); assay: ELISA, plate coated with human β-NGF, anti-human IgG-HRP detection, 4-parameter fit
# human β-NGF (human) [3] = molecular target: human β-NGF (human) (UniProt P01138); assay: ELISA, plate coated with 0.5 µg/mL human β-NGF; antibody at 1 µg/mL; duplicate well 1
# human β-NGF (human) [4] = molecular target: human β-NGF (human) (UniProt P01138); assay: ELISA, plate coated with 0.5 µg/mL human β-NGF; antibody at 1 µg/mL; duplicate well 2
# human β-NGF (human) [5] = molecular target: human β-NGF (human) (UniProt P01138); assay: ELISA, plate coated with 0.5 µg/mL human β-NGF; antibody 1 µg/mL diluted 1:3; duplicate well 1
# human β-NGF (human) [6] = molecular target: human β-NGF (human) (UniProt P01138); assay: ELISA, plate coated with 0.5 µg/mL human β-NGF; antibody 1 µg/mL diluted 1:3; duplicate well 2
# human β-NGF (human) [7] = molecular target: human β-NGF (human) (UniProt P01138); assay: ELISA, plate coated with 0.5 µg/mL human β-NGF; antibody 1 µg/mL diluted 1:9; duplicate well 1
# human β-NGF (human) [8] = molecular target: human β-NGF (human) (UniProt P01138); assay: ELISA, plate coated with 0.5 µg/mL human β-NGF; antibody 1 µg/mL diluted 1:9; duplicate well 2
# human β-NGF (human) [9] = molecular target: human β-NGF (human) (UniProt P01138); assay: ELISA, plate coated with 0.5 µg/mL human β-NGF; antibody 1 µg/mL diluted 1:27; duplicate well 1
# human β-NGF (human) [10] = molecular target: human β-NGF (human) (UniProt P01138); assay: ELISA, plate coated with 0.5 µg/mL human β-NGF; antibody 1 µg/mL diluted 1:27; duplicate well 2
# human β-NGF (human) [11] = molecular target: human β-NGF (human) (UniProt P01138); assay: ELISA, plate coated with 0.5 µg/mL human β-NGF; antibody 1 µg/mL diluted 1:81; duplicate well 1
# human β-NGF (human) [12] = molecular target: human β-NGF (human) (UniProt P01138); assay: ELISA, plate coated with 0.5 µg/mL human β-NGF; antibody 1 µg/mL diluted 1:81; duplicate well 2
# human β-NGF (human) [13] = molecular target: human β-NGF (human) (UniProt P01138); assay: ELISA, plate coated with 0.5 µg/mL human β-NGF; antibody 1 µg/mL diluted 1:243; duplicate well 1
# human β-NGF (human) [14] = molecular target: human β-NGF (human) (UniProt P01138); assay: ELISA, plate coated with 0.5 µg/mL human β-NGF; antibody 1 µg/mL diluted 1:243; duplicate well 2
# human β-NGF (human) [15] = molecular target: human β-NGF (human) (UniProt P01138); assay: ELISA, plate coated with 0.5 µg/mL human β-NGF; antibody 1 µg/mL diluted 1:729; duplicate well 1
# human β-NGF (human) [16] = molecular target: human β-NGF (human) (UniProt P01138); assay: ELISA, plate coated with 0.5 µg/mL human β-NGF; antibody 1 µg/mL diluted 1:729; duplicate well 2
# Sequence of human β-NGF (human) (P01138 122-241 limits assumed): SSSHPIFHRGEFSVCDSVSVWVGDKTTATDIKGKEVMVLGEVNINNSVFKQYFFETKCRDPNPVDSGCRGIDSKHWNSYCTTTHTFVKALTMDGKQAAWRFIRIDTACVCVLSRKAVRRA
substance,measurement,setting,value
Pfizer antibody Tanezumab,"neutralizing EC50 to NGF (inhibition of NGF-induced TF-1 cell proliferation, CCK-8)",[1],0.21 nM
same,EC50,human β-NGF (human) [2],0.103 nM
same,OD (450 nm),human β-NGF (human) [3],2.77 OD (450 nm)
same,OD (450 nm),human β-NGF (human) [4],2.71 OD (450 nm)
same,OD (450 nm),human β-NGF (human) [5],2.66 OD (450 nm)
same,OD (450 nm),human β-NGF (human) [6],2.55 OD (450 nm)
same,OD (450 nm),human β-NGF (human) [7],2.48 OD (450 nm)
same,OD (450 nm),human β-NGF (human) [8],2.27 OD (450 nm)
same,OD (450 nm),human β-NGF (human) [9],2.17 OD (450 nm)
same,OD (450 nm),human β-NGF (human) [10],1.97 OD (450 nm)
same,OD (450 nm),human β-NGF (human) [11],1.18 OD (450 nm)
same,OD (450 nm),human β-NGF (human) [12],1.27 OD (450 nm)
same,OD (450 nm),human β-NGF (human) [13],0.56 OD (450 nm)
same,OD (450 nm),human β-NGF (human) [14],0.609 OD (450 nm)
same,OD (450 nm),human β-NGF (human) [15],0.227 OD (450 nm)
same,OD (450 nm),human β-NGF (human) [16],0.245 OD (450 nm)
